Article PMC10343182, “Homogeneous Electrochemical Aptamer Sensor Based on Two-Dimensional Nanocomposite Probe and Nanochannel Modified Electrode for Sensitive Detection of Carcinoembryonic Antigen”

Assays:
[1] = target: carcinoembryonic antigen (CEA) (UniProt P06731 35-685); test: electrochemical sensor (DPV/CV), aptamer release from graphene oxide; Ru(NH3)6 3+, GO; sensor LOD 14 fg/mL, linear 60 fg/mL-100 ng/mL (not Kd); PBS (sodium phosphate) 0.01 M, pH 7.4; GO 0.1 mg/mL, aptamer 1 uM, Ru(NH3)6 3+ 50 uM (optimum); temperature not stated; details: protein: commercial
[2] = target: prostate specific antigen (PSA) (UniProt P07288 25-261); test: electrochemical sensor (DPV), aptamer release from graphene oxide; Ru(NH3)6 3+, GO; PBS (sodium phosphate) 0.01 M, pH 7.4; GO 0.1 mg/mL, aptamer 1 uM, Ru(NH3)6 3+ 50 uM (optimum); temperature not stated; details: protein: commercial
[3] = target: cancer antigen 153 (CA153) (UniProt P15941 24-1097); test: as above; details: protein: commercial
[4] = target: T1, C-reactive protein (CRP) (UniProt P02741 19-224); test: as above; details: protein: commercial; chain copies: 5
T1 sequence: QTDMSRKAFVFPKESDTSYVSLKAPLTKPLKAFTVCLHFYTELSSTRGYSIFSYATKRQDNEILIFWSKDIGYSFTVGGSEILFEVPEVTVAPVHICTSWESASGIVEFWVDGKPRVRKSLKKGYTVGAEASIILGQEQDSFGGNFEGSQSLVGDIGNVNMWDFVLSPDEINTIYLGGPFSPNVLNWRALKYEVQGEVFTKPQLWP

[5] = target: T2, alpha fetoprotein (AFP) (UniProt P02771 19-609); test: as above; details: protein: commercial
T2 sequence: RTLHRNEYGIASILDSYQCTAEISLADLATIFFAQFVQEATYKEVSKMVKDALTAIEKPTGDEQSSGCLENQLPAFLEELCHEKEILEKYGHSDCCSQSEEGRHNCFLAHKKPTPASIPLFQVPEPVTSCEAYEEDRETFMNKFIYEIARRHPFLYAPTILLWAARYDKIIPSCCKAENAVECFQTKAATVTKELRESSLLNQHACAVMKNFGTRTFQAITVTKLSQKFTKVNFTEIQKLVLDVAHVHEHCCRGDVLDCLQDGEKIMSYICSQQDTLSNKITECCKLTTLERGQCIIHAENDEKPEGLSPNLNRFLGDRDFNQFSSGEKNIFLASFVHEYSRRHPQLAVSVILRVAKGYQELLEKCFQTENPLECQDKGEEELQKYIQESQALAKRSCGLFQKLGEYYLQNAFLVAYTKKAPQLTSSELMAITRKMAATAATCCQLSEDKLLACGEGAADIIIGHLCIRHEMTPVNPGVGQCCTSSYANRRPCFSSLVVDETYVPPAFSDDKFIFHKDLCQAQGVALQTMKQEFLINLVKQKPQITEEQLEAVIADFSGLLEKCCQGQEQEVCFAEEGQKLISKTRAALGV

Chain of carcinoembryonic antigen (CEA) (P06731 35-685): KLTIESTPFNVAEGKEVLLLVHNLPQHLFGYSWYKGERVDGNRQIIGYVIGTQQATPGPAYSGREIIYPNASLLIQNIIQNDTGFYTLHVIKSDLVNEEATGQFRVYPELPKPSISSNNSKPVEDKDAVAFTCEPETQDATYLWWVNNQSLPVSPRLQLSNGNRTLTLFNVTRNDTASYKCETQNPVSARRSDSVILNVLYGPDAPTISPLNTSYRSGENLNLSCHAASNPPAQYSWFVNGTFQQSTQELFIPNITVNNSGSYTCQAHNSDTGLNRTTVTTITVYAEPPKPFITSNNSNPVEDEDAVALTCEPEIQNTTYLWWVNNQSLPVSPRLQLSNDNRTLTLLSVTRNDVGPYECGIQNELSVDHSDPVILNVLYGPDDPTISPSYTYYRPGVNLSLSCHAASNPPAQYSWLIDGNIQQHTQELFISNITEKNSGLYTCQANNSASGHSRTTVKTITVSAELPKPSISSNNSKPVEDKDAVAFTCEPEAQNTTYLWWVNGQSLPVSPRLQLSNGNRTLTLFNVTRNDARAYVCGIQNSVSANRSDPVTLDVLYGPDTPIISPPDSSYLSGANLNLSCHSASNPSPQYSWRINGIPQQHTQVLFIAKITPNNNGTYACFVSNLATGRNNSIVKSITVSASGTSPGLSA
Chain of cancer antigen 153 (CA153) (P15941 24-1097): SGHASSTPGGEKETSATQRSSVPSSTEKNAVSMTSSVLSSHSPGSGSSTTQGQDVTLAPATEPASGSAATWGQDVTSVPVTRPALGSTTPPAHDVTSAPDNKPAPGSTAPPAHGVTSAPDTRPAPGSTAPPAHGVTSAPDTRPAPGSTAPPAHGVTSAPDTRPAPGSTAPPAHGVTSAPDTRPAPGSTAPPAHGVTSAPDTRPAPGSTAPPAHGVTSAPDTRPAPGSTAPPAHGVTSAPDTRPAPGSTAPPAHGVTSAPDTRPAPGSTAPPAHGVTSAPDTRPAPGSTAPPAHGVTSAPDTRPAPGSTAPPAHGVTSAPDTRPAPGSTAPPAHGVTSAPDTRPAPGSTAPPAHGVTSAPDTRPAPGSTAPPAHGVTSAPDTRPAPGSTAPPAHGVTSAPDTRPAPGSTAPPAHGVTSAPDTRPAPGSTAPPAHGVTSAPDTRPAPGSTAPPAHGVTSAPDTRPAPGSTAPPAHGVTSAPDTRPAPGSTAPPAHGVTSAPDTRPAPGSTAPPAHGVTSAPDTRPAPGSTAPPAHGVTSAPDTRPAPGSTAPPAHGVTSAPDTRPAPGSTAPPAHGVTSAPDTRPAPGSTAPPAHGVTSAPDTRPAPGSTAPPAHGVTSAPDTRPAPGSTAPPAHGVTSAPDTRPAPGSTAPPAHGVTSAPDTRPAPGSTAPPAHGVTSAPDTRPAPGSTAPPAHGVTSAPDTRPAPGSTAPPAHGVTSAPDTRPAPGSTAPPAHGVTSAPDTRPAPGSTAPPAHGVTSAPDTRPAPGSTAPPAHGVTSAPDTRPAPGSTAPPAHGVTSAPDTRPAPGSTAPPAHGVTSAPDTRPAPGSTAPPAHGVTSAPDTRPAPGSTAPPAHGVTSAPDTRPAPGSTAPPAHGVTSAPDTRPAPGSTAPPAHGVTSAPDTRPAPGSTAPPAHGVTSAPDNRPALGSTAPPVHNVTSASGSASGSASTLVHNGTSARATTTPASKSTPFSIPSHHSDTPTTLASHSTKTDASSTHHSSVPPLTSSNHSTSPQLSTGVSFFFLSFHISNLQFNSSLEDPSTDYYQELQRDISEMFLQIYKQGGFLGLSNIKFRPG
Chain of prostate specific antigen (PSA) (P07288 25-261): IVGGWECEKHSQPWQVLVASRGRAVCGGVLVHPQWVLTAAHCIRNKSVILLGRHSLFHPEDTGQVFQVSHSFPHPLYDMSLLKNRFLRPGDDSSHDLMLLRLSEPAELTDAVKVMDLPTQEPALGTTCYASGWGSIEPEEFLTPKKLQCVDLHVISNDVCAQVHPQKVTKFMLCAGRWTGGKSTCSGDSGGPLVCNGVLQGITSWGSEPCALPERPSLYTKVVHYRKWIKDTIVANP

B1: CEA aptamer (Apt) (ssDNA)
DNA: ATACAGCTTCAATT
modifications: 3'-NH2
- binding result [1]: binds
- binding result [2]: no binding
- binding result [3]: no binding
- binding result [4]: no binding
- binding result [5]: no binding
